From publication PMC5321526

Target: MVV IN construct spanning the C-terminal domain (CTD), as crystallised (maedi-visna virus (MVV))
Assay: crystal structure

MVV IN construct spanning the C-terminal domain (CTD), as crystallised (domain or fragment)
stoichiometry N: 2
